In US20180016342A1 (published 2018):

Experiments:
[1] = target: membrane-bound IL6R on human cells (U266, XG-1, TF-1) (human) (UniProt P08887); test: cell-based or functional assay
[2] = target: T1, soluble IL6-R in cynomolgus plasma (cynomolgus monkey, UniProt A0A2K5WN54 60-386); test: ELISA inhibition of IL-6 binding to plasma sIL6R; cyno plasma, 50 ng/mL IL-6
T1 chain: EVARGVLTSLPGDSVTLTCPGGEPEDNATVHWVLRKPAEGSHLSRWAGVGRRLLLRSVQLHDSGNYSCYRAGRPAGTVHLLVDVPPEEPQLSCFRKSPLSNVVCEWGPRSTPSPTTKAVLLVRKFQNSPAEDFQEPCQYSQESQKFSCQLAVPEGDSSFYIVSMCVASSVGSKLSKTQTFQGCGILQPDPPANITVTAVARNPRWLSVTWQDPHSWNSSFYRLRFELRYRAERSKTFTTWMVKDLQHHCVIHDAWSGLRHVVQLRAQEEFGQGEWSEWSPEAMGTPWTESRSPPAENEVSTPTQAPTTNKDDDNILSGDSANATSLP

[3] = target: T2, human soluble IL6-R (human, UniProt P08887 20-358); test: Alphascreen inhibition of IL6/IL6-R interaction
T2 chain: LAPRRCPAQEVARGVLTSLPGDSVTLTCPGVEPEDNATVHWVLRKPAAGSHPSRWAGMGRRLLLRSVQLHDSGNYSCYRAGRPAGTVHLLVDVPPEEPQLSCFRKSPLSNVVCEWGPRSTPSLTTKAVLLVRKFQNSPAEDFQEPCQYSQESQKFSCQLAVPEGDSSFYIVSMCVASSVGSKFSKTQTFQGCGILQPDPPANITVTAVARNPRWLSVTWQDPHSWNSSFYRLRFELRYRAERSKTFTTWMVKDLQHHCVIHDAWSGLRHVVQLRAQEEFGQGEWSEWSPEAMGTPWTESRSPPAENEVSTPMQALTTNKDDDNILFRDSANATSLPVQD

[4] = target: T2, human soluble IL6-R; test: Alphascreen inhibition of IL6/IL6-R interaction
[5] = target: T2, human soluble IL6-R; test: Alphascreen inhibition of IL6/IL6-R interaction
[6] = target: T2, human soluble IL6-R; test: Alphascreen inhibition of IL6/IL6-R interaction
[7] = target: T2, human soluble IL6-R; test: Alphascreen inhibition of IL6/IL6-R interaction; printed LOGEC50 -9.833

## MAb BR-6 (antibody)
[1]
  IC50 (+1% HSA), TF-1 proliferation assay, 200 pg/ml IL-6: 0.088
  IC50 (nM), XG-1 cell based assay: 0.064 nM
  IC50 (w/o HSA), TF-1 proliferation assay, 200 pg/ml IL-6: 0.042

## MAb BN-12 (antibody)
[1]
  IC50 (nM), XG-1 cell based assay: 0.272 nM

B1: IL6R03 (VHH)
VHH: EVQLVESGGGLVQAGGSLRLSCAASGSIFKVNAMGWYRQAPGKQRELVAGIISGGSTNYADSVKGRLTISRDNAKNTVYLQMNSLKPEDTAVYYCSFVTTNSDYDLGRDYWGQGTQVTVSS
[2]
  EC50: 5.88 nM
[3]
  EC50: 0.187 nM
[4]
  EC50: 0.105 nM

B2: IL6R04 (VHH)
VHH: EVQLVESGGGLVQAGGSLRLSCAASGFTFDDYDIGWFRQAPGKEREGVSGISSSDGNTYYADSVKGRFTISSDNAKNTVYLQMNSLKPEDTAVYYCAAEPPDSSWYLDGSPEFFKYWGQGTQVTVSS
[2]
  EC50: 36.9 nM
[5]
  EC50: 0.18 nM
[4]
  EC50: 0.0568 nM

B3: IL6R72 (VHH)
VHH: EVQLVESGGGLVQPGGSLRLSCAASGFTFSDYDIGWFRQAPGKGREGVSGISSSDGNTYYADSVKGRFTISSDNAKNTVYLQMNSLRPEDTAVYYCAAEPPDSSWYLDGSPEFFKYWGQGTLVTVSS
[5]
  EC50: 0.16 nM

B4: IL6R62 (VHH)
VHH: EVQLVESGGGLVQPGGSLRLSCAASGSIFKVNAMGWYRQAPGKGRELVAGIISGGSTNYADSVKGRFTISRDNAKNTVYLQMNSLRPEDTAVYYCSFVTTNSDYDLGRDYWGQGTLVTVSS
[3]
  EC50: 0.28 nM

B5: IL6R84 (VHH)
VHH: EVQLVESGGGLVQPGGSLRLSCAASGFTFDDYGMSWVRQAPGKGLEWVSAISWNGNNTYYTESMKGRFTISRDNAKNTLYLQMNSLRPEDTAVYYCVKGSTAIVGVPPTYPDEYDYWGQGTLVTVSS
[6]
  EC50: 0.465 nM

B6: IL6R13 (VHH)
VHH: EVQLVESGGGLVQPGGSLRLSCAASGFTFDDYGMSWVRQAPGRATEWVSAISWNGNNTYYTESMKGRFTISRDNAKNTVYLQMNSLKPEDTAVYYCVKGSTAIVGVPPTYPDEYDYWGQGTQVTVSS
[6]
  EC50: 0.0644 nM
[2]
  EC50: 11.7 nM
[4]
  EC50: 0.0505 nM

B7: IL6R73 (VHH)
VHH: EVQLVESGGGLVQPGGSLRLSCAASGFTFDDYDIGWFRQAPGKGREGVSGISSSDGNTYYADSVKGRFTISRDNAKNTVYLQMNSLRPEDTAVYYCAAEPPDSSWYLDGSPEFFKYWGQGTLVTVSS
[5]
  EC50: 0.0916 nM

B8: IL6R65 (VHH)
VHH: EVQLVESGGGLVQPGGSLRLSCAASGSIFKVNAMGWYRQAPGKGRELVAGIISGGSTNYADSVKGRFTISRDNAKNTLYLQMNSLRPEDTAVYYCAFVTTNSDYDLGRDYWGQGTLVTVSS
[2]
  EC50: 4.91 nM
[7]
  EC50: 0.105 nM

B9: IL6R74 (VHH)
VHH: EVQLVESGGGLVQPGGSLRLSCAASGFTFDDYDIGWFRQAPGKGREGVSGISSSDGNTYYADSVKGRFTISSDNAKNTLYLQMNSLRPEDTAVYYCAAEPPDSSWYLDGSPEFFKYWGQGTLVTVSS
[5]
  EC50: 0.133 nM

B10: IL6R61 (VHH)
VHH: EVQLVESGGGLVQPGGSLRLSCAASGSIFKVNAMGWYRQAPGKGRELVAGIISGGSTNYADSVKGRLTISRDNAKNTVYLQMNSLRPEDTAVYYCSFVTTNSDYDLGRDYWGQGTLVTVSS
[3]
  EC50: 0.336 nM

B11: IL6R71 (VHH)
VHH: EVQLVESGGGLVQPGGSLRLSCAASGFTFDDYDIGWFRQAPGKGREGVSGISSSDGNTYYADSVKGRFTISSDNAKNTVYLQMNSLRPEDTAVYYCAAEPPDSSWYLDGSPEFFKYWGQGTLVTVSS
[5]
  EC50: 0.153 nM

B12: IL6R88 (VHH)
VHH: EVQLVESGGGLVQPGGSLRLSCAASGFTFDDYGMSWVRQAPGKGTEWVSAISWNGNNTYYTESMKGRFTISRDNAKNTLYLQMNSLRPEDTAVYYCVKGSTAIVGVPPTYPDEYDYWGQGTLVTVSS
[2]
  EC50: 23.3 nM
[4]
  EC50: 0.0727 nM

B13: IL6R75 (VHH)
VHH: EVQLVESGGGLVQPGGSLRLSCAASGFTFSDYDIGWFRQAPGKGREGVSGISSSDGNTYYADSVKGRFTISRDNAKNTLYLQMNSLRPEDTAVYYCAAEPPDSSWYLDGSPEFFKYWGQGTLVTVSS
[4]
  EC50: 0.0432 nM

B14: IL6R63 (VHH)
VHH: EVQLVESGGGLVQPGGSLRLSCAASGSIFKVNAMGWYRQAPGKGRELVAGIISGGSTNYADSVKGRLTISRDNAKNTLYLQMNSLRPEDTAVYYCSFVTTNSDYDLGRDYWGQGTLVTVSS
[3]
  EC50: 0.65 nM

B15: IL6R64 (VHH)
VHH: EVQLVESGGGLVQPGGSLRLSCAASGSIFKVNAMGWYRQAPGKGRELVAGIISGGSTNYADSVKGRLTISRDNAKNTVYLQMNSLRPEDTAVYYCAFVTTNSDYDLGRDYWGQGTLVTVSS
[3]
  EC50: 0.108 nM

B16: IL6R82 (VHH)
VHH: EVQLVESGGGLVQPGGSLRLSCAASGFTFDDYGMSWVRQAPGKGLEWVSAISWNGNNTYYTESMKGRFTISRDNAKNTVYLQMNSLRPEDTAVYYCVKGSTAIVGVPPTYPDEYDYWGQGTLVTVSS
[6]
  EC50: 0.476 nM

B17: IL6R83 (VHH)
VHH: EVQLVESGGGLVQPGGSLRLSCAASGFTFDDYGMSWVRQAPGRATEWVSAISWNGNNTYYTESMKGRFTISRDNAKNTLYLQMNSLRPEDTAVYYCVKGSTAIVGVPPTYPDEYDYWGQGTLVTVSS
[6]
  EC50: 0.0779 nM

B18: IL6R81 (VHH)
VHH: EVQLVESGGGLVQPGGSLRLSCAASGFTFDDYGMSWVRQAPGRATEWVSAISWNGNNTYYTESMKGRFTISRDNAKNTVYLQMNSLRPEDTAVYYCVKGSTAIVGVPPTYPDEYDYWGQGTLVTVSS
[6]
  EC50: 0.0747 nM
